Data as given in patent US20170247475A1 (Boehringer Ingelheim, published 2017).
Values belong to the binder of their own block, whether it stands above or below them.

What was measured:
human VEGF-D = molecular target: T1, human VEGF-D (human, UniProt O43915 93-201); assay: binding ELISA on coated VEGF D
T1 construct: also called hVEGF-D
T1 sequence (looked up): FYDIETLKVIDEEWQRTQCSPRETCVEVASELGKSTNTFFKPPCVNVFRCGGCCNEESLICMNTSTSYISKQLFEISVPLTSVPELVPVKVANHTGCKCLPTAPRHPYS
Description: (§1) Binding to VEGFB, VEGFC, VEGFD and PIGF is assessed via a solid phase binding ELISA. In brief, VEGFB, VEGFC, VEGFD and PIGF (R&D Systems, Minneapolis, Minn., USA) are coated overnight at 4° C. at 1 μg/mL in a 96-well MaxiSorp plate (Nunc, Wiesbaden, Germany). Wells are blocked with a casein solution (1% in PBS). […] As positive controls serial dilutions of the appropriate receptors are taken along and detected with horseradish peroxidase (HRP)-conjugated goat anti-human IgG, Fc specific antibody (Jackson Immuno Research Laboratories Inc., West Grove, Pa., USA) and a subsequent enzymatic reaction in the presence of the substrate TMB (3,3′,5,5′-tetramentylbenzidine) (Pierce, Rockford, Ill., USA).

[1] = molecular target: T2, recombinant human VEGF165 (human, UniProt P15692-4 27-191); assay: kd1; SPR Biacore T100, hVEGF165 on chip, Two State Reaction model
T2 construct: also called hVEGF165; rhVEGF165
Description: (§2) Samples are injected for 2 min and allowed to dissociate up to 20 min at a flow rate of 45 μI/min. In between sample injections, the chip surface is regenerated with 100 mM HCl. HBS-EP+(Hepes buffer pH7.4+EDTA) is used as running buffer. Binding curves are fitted using a Two State Reaction model by Biacore T100 Evaluation Software v2.0.1.
(§3) ^{(a)}KD = kd1/kₐ₁ * (kd2/(kd2 + kₐ₂)) ^{(b)}Curves are fitted using a Two State Reaction model by Biacore T100 Evaluation Software v2.0.1

[2] = molecular target: T2, recombinant human VEGF165; assay: hVEGF165/hVEGFR2-Fc competition ELISA
[3] = molecular target: T2, recombinant human VEGF165; assay: VEGF/VEGFR2 competition AlphaScreen
Description: (§4) Finally, streptavidin donor beads (20 μg/ml) are added and after 1 hour of incubation in the dark, fluorescence is measured on the Envision microplate reader.

human VEGF-B = molecular target: T3, human VEGF-B (human, UniProt P49765-2 22-188, limits assumed); assay: binding ELISA on coated VEGFB
T3 construct: also called hVEGF-B
T3 sequence (looked up): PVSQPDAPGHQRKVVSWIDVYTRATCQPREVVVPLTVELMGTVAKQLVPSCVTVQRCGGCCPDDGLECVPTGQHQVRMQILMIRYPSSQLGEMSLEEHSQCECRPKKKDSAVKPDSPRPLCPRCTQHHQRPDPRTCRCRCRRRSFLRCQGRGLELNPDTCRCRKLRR
Description: as §1

VEGF [4] = assay: cell-based or functional assay
[5] = molecular target: T2, recombinant human VEGF165; assay: hVEGF165/hVEGFR2-Fc competition AlphaScreen
Description: as §4

[6] = molecular target: T2, recombinant human VEGF165; assay: binding ELISA, coated rhVEGF165
[7] = molecular target: T2, recombinant human VEGF165; assay: VEGF/VEGFR1 competition AlphaScreen
Description: as §4

human VEGF-C = molecular target: T4, human VEGF-C (human, UniProt P49767 103-227); assay: binding ELISA on coated VEGFC
T4 construct: also called hVEGF-C
T4 sequence (looked up): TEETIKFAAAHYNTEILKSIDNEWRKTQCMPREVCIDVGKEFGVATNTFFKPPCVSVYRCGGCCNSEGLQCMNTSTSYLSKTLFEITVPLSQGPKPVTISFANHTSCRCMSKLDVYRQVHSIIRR
Description: as §1

[8] = molecular target: T2, recombinant human VEGF165; assay: VEGF165/hVEGFR1-Fc competition AlphaScreen
Description: as §4

[9] = molecular target: T2, recombinant human VEGF165; assay: SPR Biacore T100, hVEGF165 on chip, Two State Reaction model
Description: as §2, §3

[10] = molecular target: T2, recombinant human VEGF165; assay: ka1; SPR Biacore T100, hVEGF165 on chip, Two State Reaction model
Description: as §2, §3

[11] = molecular target: T5, recombinant mouse VEGF164 (mouse, UniProt Q00731-2 27-190); assay: binding ELISA on coated mouse VEGF164
T5 construct: biotinylated in the mVEGFR2 AlphaScreen; also called rmVEGF164; mVEGF164
T5 sequence (looked up): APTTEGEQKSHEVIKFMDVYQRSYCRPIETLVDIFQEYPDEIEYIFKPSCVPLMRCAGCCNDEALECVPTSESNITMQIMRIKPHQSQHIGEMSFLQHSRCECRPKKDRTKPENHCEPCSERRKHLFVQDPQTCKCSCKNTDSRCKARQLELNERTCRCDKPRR
Description: (§5) Cross-reactivity to mouse VEGF164 is determined using a binding ELISA. […] Wells are blocked with a casein solution (1% in PBS). […] A mouse VEGF164 reactive mAb is included as positive control.

[12] = molecular target: T2, recombinant human VEGF165; assay: SPR Biacore T100, Two State Reaction model; KD = kd1/ka1 * (kd2/(kd2 + ka2))
Description: as §2, §3

human PIGF = molecular target: T6, human PIGF (human, UniProt P49763-2 21-149, limits assumed); assay: binding ELISA on coated PIGF
T6 construct: also called hPIGF; PLGF
T6 sequence (looked up): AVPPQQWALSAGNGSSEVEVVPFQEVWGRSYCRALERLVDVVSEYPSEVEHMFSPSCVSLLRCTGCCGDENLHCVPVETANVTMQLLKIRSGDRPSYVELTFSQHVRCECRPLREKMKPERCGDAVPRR
Description: as §1

[13] = molecular target: T7, recombinant human VEGF121 (human, UniProt P15692-9 27-147); assay: binding ELISA, coated rhVEGF121
T7 construct: also called rhVEGF121; hVEGF121
T7 sequence (looked up): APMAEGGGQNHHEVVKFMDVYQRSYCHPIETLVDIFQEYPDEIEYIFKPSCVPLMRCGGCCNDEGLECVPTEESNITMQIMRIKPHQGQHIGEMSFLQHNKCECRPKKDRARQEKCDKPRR
Description: Binding to recombinant human VEGF121 is assessed via a solid phase binding ELISA. Briefly, recombinant human VEGF121 (R&D Systems, Minneapolis, Minn., USA) is coated overnight at 4° C. at 1 μg/mL in a 96-well MaxiSorp plate (Nunc, Wiesbaden, Germany). Wells are blocked with a casein solution (1% in PBS).

[14] = molecular target: T2, recombinant human VEGF165; assay: VEGF165/hVEGFR1-Fc competition ELISA
[15] = molecular target: T5, recombinant mouse VEGF164; assay: binding ELISA, coated rmVEGF164
Description: as §5

VEGF [16] = assay: cell-based or functional assay; remark: listed apart in the source

binding result (human VEGF-D): no binding (tested: 5e-7 M) | koff [1]: 0.018 s⁻¹ | % inhibition [2]: 100% | IC50 [2]: 0.213 nM | IC50 [3]: 0.038 nM | binding result (human VEGF-B): no binding (tested: 5e-7 M) | % inhibition, VEGF HUVEC Erk phosphorylation assay (VEGF [4]): 100% | IC50 (nM), VEGF HUVEC Erk phosphorylation assay (VEGF [4]): 0.25 nM | % inhibition [5]: 100% | IC50 [5]: 0.046 nM | EC50 [6]: 0.221 nM | % inhibition [7]: 91% | IC50 [7]: 0.044 nM | binding result (human VEGF-C): no binding (tested: 5e-7 M) | % inhibition [8]: 87% | IC50 [8]: 0.048 nM | ka2 [9]: 0.024 s⁻¹ | kd2 [9]: 0.00027 s⁻¹ | kon [10]: 300000 M⁻¹ s⁻¹ | binding result [11]: binds | Kd [12]: 0.69 nM | binding result (human PIGF): no binding (tested: 5e-7 M)
B1: VEGFBII023 (VHH)
chain: EVQLVESGGGLVQTGDSLRLSCEVSGRTFSSYSMGWFRQAQGKEREFVVAISKGGYKYDSVSLEGRFTISKDNAKNTVYLQINSLKPEDTAVYYCASSRAYGSSRLRLADTYEYWGQGTQVTVSSGGGGSGGGGSGGGGSGGGGSGGGGSGGGGSGGGGSGGGGSEVQLVESGGGLVQAGGSLRLSCAASGRTFSNYAMGWFRQAPGKERVLVADISSSGINTYVADAVKGRFTISRDNAKNTVYLQMNSLKPEDTAVYYCAASAWWYSQMARDNYRYWGQGTQVTVSS
notes: biparatopic bivalent VHH in one chain; also called VEGFBII23B04-40GS-10E07; VEGFBI023

binding result (human VEGF-D): no binding (tested: 5e-7 M) | koff [1]: 0.017 s⁻¹ | % inhibition [2]: 100% | IC50 [2]: 0.577 nM | IC50 [3]: 0.051 nM | binding result (human VEGF-B): no binding (tested: 5e-7 M) | % inhibition, VEGF HUVEC Erk phosphorylation assay (VEGF [4]): 99% | IC50 (nM), VEGF HUVEC Erk phosphorylation assay (VEGF [4]): 0.23 nM | % inhibition [5]: 100% | IC50 [5]: 0.051 nM | EC50 [6]: 0.668 nM | % inhibition [7]: 82% | IC50 [7]: 0.039 nM | EC50 [13]: 0.475 nM | binding result (human VEGF-C): no binding (tested: 5e-7 M) | % inhibition [8]: 82% | IC50 [8]: 0.071 nM | ka2 [9]: 0.018 s⁻¹ | kd2 [9]: 0.00037 s⁻¹ | kon [10]: 330000 M⁻¹ s⁻¹ | binding result [11]: binds | Kd [12]: 1.1 nM | binding result (human PIGF): no binding (tested: 5e-7 M)
B2: VEGFBII025 (VHH)
chain: EVQLVESGGGLVQAGGSLRLSCAASGRTFSNYAMGWFRQAPGKERVLVADISSSGINTYVADAVKGRFTISRDNAKNTVYLQMNSLKPEDTAVYYCAASAWWYSQMARDNYRYWGQGTQVTVSSGGGGSGGGGSGGGGSGGGGSGGGGSGGGGSGGGGSGGGGSEVQLVESGGGLVQTGDSLRLSCEVSGRTFSSYSMGWFRQAQGKEREFVVAISKGGYKYDSVSLEGRFTISKDNAKNTVYLQINSLKPEDTAVYYCASSRAYGSSRLRLADTYEYWGQGTQVTVSS
notes: biparatopic bivalent VHH in one chain; also called VEGFBII10E07-40GS-23B04

% inhibition [14]: 97% | IC50 [14]: 0.254 nM | binding result (human VEGF-D): no binding (tested: 5e-7 M) | EC50 [15]: 0.502 nM | koff [1]: 0.011 s⁻¹ | % inhibition [2]: 100% | IC50 [2]: 0.204 nM | IC50 [3]: 0.009 nM | binding result (human VEGF-B): no binding (tested: 5e-7 M) | % inhibition, VEGF HUVEC proliferation assay (VEGF [16]): 98% | IC50 (nM), VEGF HUVEC proliferation assay (VEGF [16]): 0.4 nM | % inhibition, VEGF HUVEC Erk phosphorylation assay (VEGF [4]): 103% | IC50 (nM), VEGF HUVEC Erk phosphorylation assay (VEGF [4]): 0.21 nM | % inhibition [5]: 100% | IC50 [5]: 0.007 nM | EC50 [6]: 0.334 nM | % inhibition [7]: 100% | IC50 [7]: 0.016 nM | binding result (human VEGF-C): no binding (tested: 5e-7 M) | % inhibition [8]: 100% | IC50 [8]: 0.012 nM | ka2 [9]: 0.023 s⁻¹ | kd2 [9]: 0.00019 s⁻¹ | kon [10]: 1.2e+06 M⁻¹ s⁻¹ | Kd [12]: 0.07 nM | binding result (human PIGF): no binding (tested: 5e-7 M)
B3: VEGFBII021 (VHH)
chain: EVQLVESGGGLVQTGDSLRLSCEVSGRTFSSYSMGWFRQAQGKEREFVVAISKGGYKYDSVSLEGRFTISKDNAKNTVYLQINSLKPEDTAVYYCASSRAYGSSRLRLADTYEYWGQGTQVTVSSGGGGSGGGGSGGGGSGGGGSGGGGSGGGGSGGGGSGGGGSEVQLVESGGGLVQPGGSLRLSCVASGIRFMSMAWYRQAPGKHRELVARISSGGTTAYVDSVKGRFTISRDNSKNTVYLQMNSLKAEDTAVYYCNTFSSRPNPWGAGTQVTVSS
notes: biparatopic bivalent VHH in one chain; also called VEGFBII23B04-40GS-5B05
